From the supplement of paper PMC10065799, “High-throughput profiling of sequence recognition by tyrosine kinases and SH2 domains using bacterial peptide display” (eLife, 2023)

What was measured:
[1] = molecular target: FGFR3 (UniProt P22607); assay: phosphorylation enrichment, bacterial display (enrichment ratio); higher = better substrate or ligand; peptides without Tyr show the background
[2] = molecular target: EPHB2 (UniProt P29323); assay: as above
[3] = molecular target: Hck (UniProt P08631); assay: as above
[4] = molecular target: EPHB1 (UniProt P54762); assay: as above
[5] = system: Fer (mouse); assay: as above
[6] = system: c-Abl (mouse); assay: as above
[7] = molecular target: FGFR1 (UniProt P11362); assay: as above
[8] = system: AncSZ; assay: as above
[9] = molecular target: Fyn (UniProt P06241); assay: as above
[10] = molecular target: MERTK (UniProt Q12866); assay: as above
[11] = molecular target: Jak2 (UniProt O60674); assay: as above
[12] = system: c-Src; assay: as above
[13] = molecular target: Fes (UniProt P07332); assay: as above
[14] = molecular target: Grb2 SH2 (UniProt P62993); assay: SH2 binding enrichment of the phosphorylated peptide, bacterial display (enrichment ratio); higher = better substrate or ligand; peptides without Tyr show the background
[15] = molecular target: SHP2-C SH2; assay: as above
[16] = molecular target: c-Src SH2; assay: as above
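Throughout, for SH2 binding enrichment of the phosphorylated peptide, bacterial display: peptide library displayed on the E. coli surface as eCPX fusions, selected cells deep-sequenced, score is each peptide's frequency after selection divided by its frequency in the input.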
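Throughout, for phosphorylation enrichment, bacterial display: 11-residue human phosphosite peptides and single-mutation variants displayed on the E. coli surface, counted by deep sequencing, each peptide's frequency after selection divided by its frequency in the unselected input library; frequency after pTyr selection over input frequency; kinase dosed for 20-30% of maximal phosphorylation in three min.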

EPHB2, sequence (P29323 whole entry, looked up): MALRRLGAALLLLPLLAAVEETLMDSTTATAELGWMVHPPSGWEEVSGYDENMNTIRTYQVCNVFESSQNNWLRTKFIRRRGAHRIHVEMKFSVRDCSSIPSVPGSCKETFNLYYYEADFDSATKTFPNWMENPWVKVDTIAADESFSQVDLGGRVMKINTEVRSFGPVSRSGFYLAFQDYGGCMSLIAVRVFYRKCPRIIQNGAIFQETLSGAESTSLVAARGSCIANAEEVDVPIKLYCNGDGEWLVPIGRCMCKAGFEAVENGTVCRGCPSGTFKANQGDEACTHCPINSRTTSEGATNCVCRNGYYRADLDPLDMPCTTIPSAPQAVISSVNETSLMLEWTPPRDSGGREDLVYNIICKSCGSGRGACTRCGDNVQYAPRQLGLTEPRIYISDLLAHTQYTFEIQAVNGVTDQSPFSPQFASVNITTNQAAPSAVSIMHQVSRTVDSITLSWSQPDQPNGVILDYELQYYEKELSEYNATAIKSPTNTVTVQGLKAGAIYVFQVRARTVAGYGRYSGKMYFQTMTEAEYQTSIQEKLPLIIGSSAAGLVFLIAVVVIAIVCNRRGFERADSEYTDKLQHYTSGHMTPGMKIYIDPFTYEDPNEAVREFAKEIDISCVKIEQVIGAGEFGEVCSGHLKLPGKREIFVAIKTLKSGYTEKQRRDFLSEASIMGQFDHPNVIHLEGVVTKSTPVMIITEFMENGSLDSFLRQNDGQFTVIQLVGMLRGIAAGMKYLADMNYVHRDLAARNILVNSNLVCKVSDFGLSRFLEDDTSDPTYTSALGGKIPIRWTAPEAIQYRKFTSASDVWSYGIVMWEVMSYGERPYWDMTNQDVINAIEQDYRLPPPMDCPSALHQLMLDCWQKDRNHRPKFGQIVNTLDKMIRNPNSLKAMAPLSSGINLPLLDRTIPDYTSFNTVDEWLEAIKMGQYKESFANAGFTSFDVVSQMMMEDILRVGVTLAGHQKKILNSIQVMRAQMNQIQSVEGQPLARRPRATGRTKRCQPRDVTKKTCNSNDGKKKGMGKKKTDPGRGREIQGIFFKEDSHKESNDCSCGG
Fyn, sequence (P06241 whole entry, looked up): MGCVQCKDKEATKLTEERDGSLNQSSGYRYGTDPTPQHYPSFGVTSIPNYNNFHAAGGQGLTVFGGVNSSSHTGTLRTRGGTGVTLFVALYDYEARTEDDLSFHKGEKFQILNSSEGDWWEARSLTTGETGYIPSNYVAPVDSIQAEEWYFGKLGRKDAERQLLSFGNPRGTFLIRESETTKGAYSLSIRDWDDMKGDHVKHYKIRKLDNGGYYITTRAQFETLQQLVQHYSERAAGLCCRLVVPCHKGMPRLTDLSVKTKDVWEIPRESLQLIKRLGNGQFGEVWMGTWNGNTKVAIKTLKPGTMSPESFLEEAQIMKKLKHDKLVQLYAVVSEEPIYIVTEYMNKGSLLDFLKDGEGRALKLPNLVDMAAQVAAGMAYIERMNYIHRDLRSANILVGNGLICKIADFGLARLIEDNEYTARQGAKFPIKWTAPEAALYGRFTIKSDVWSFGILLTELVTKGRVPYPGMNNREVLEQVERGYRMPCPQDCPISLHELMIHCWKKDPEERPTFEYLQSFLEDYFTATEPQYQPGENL
EPHB1, sequence (P54762 whole entry, looked up): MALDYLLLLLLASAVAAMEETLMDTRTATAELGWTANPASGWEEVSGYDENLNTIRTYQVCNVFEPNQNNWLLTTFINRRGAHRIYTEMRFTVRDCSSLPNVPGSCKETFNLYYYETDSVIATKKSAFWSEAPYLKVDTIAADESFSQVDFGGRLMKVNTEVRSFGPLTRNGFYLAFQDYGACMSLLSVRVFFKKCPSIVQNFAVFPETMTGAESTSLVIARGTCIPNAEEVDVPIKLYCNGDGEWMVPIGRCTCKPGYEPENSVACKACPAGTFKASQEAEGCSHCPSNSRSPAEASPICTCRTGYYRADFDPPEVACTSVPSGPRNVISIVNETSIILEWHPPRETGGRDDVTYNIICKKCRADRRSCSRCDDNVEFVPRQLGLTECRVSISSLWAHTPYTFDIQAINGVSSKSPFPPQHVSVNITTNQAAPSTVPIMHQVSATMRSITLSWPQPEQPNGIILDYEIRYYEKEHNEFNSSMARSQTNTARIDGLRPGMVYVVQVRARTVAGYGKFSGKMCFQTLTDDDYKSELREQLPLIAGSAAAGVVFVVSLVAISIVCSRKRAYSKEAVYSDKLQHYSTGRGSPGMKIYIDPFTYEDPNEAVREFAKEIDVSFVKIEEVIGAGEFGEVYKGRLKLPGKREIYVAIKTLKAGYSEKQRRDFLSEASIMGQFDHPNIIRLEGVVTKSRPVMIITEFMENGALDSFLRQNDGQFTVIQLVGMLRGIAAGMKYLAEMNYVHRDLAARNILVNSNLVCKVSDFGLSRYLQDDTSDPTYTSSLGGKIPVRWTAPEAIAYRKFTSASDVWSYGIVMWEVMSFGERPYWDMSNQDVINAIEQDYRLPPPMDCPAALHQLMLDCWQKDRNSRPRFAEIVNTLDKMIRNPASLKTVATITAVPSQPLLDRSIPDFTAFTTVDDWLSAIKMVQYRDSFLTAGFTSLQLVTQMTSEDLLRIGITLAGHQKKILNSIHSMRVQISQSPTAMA
Jak2, sequence (O60674 whole entry, looked up): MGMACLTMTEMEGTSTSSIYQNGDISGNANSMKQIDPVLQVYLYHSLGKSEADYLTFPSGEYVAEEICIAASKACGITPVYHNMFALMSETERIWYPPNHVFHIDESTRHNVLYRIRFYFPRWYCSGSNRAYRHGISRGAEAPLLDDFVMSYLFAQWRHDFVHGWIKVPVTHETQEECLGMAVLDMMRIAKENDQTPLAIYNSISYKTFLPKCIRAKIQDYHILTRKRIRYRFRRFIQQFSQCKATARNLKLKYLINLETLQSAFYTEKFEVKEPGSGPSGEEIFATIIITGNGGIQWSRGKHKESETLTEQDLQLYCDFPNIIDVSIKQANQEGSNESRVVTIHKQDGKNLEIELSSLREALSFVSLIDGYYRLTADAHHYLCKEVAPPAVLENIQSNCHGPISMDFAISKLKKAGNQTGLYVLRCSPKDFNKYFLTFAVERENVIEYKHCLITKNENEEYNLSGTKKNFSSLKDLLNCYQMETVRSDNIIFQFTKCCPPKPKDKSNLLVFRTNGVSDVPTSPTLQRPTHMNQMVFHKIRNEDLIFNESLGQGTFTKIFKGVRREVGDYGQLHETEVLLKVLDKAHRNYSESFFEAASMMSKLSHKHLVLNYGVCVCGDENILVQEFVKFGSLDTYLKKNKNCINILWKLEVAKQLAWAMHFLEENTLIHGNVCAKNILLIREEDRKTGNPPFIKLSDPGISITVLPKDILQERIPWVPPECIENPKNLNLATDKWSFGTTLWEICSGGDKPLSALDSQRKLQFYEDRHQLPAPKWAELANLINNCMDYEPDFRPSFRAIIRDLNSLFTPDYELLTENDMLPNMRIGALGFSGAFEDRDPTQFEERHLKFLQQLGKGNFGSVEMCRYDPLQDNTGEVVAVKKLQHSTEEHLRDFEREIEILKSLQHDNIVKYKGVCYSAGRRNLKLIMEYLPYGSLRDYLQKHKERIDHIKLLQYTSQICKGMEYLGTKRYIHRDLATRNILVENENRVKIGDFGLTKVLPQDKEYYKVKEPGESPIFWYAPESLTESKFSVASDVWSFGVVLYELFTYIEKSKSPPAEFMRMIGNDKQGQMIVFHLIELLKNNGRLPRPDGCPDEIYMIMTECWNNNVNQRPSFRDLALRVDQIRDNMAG
Fes, sequence (P07332 whole entry, looked up): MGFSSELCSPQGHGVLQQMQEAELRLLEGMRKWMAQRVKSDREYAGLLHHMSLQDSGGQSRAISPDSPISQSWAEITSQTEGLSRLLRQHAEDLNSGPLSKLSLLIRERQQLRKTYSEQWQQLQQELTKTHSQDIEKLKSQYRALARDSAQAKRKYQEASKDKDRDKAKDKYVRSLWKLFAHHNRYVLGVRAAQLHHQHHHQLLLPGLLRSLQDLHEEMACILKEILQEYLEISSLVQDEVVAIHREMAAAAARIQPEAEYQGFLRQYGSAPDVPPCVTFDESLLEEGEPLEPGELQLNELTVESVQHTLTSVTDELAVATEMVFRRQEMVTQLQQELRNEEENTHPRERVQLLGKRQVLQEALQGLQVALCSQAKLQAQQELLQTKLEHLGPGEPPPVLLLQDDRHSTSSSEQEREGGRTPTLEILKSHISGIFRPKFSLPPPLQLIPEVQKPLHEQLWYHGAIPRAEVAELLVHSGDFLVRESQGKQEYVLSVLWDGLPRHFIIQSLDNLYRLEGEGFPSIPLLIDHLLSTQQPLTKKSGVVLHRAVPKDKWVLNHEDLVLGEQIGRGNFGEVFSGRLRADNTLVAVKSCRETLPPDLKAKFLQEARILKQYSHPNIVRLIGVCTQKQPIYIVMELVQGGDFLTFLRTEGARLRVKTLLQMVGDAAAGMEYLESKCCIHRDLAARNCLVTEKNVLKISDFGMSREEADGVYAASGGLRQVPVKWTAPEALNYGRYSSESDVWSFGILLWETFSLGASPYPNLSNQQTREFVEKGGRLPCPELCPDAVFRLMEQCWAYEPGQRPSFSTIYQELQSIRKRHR
Grb2 SH2, sequence (P62993 whole entry, looked up): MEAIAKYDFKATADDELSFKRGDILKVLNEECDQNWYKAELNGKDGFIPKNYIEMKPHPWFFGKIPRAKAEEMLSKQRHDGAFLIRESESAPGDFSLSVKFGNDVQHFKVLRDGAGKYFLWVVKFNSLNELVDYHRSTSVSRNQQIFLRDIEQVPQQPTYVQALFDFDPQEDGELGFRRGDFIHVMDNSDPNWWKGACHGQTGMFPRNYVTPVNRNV

Sequence	phosphorylation enrichment [1]	phosphorylation enrichment [2]	phosphorylation enrichment [3]	phosphorylation enrichment [4]	phosphorylation enrichment [5]	phosphorylation enrichment [6]	phosphorylation enrichment [7]	phosphorylation enrichment [8]	phosphorylation enrichment [9]	phosphorylation enrichment [10]	phosphorylation enrichment [11]	phosphorylation enrichment [12]	phosphorylation enrichment [13]	SH2 binding enrichment [14]	SH2 binding enrichment [15]	SH2 binding enrichment [16]
HESEIYCKVCY [CSRP3_Y57]	0.855	0.782	7.96	0.925	2.51	1.01	1.03	1.41	5.52	2.65	1.14	7.01	1.25	1.58	1.81	1.8
HFGCIYHGTLL [MET_Y1093_V1092I]	0.931	0.951	0.949	0.714	0.716	1.34	0.984	1.4	1	0.527	1.38	4.15	1.46	0.758	0.548	0.58
HFVDEYDRTIE [KRAS_Y32_P34R]	0.932	0.805	0.701	0.875	0.794	1.36	0.644	2.01	0.653	0.58	1.67	0.989	1.66	1.06	0.682	1.14
HHTNEYEYDEL [TGM1_Y134_D132N]	0.813	0.585	0.489	0.497	0.736	1.58	0.69	1.32	0.952	0.594	1.18	0.901	1.17	0.902	0.676	1
HKANEYYPVVI [ADAMTS18_Y764_L769I]	13.1	0.599	0.723	1.01	1.26	0.61	17.4	2.1	0.676	0.558	2.19	0.427	0.746	0.665	1.06	0.587
HLMLQYDAVVN [SLC25A32_Y152_R147H]	1.35	1.51	1.39	0.93	1.81	1.08	1.19	1.75	1.15	1.27	1.51	0.885	2.01	1.01	0.725	2.42
HLQQSYLPRGT [TEX45_Y396]	0.927	0.773	0.661	0.622	0.697	1.59	0.97	1.04	0.939	0.66	1.38	1.32	1.26	0.442	0.458	0.3
HNELYYEEAEH [VANGL1_Y345]	2.08	0.993	0.798	1.21	1.81	0.936	1.63	2.06	0.751	1.11	1.32	0.708	1.53	0.871	0.95	0.798
HNQDGYSFPSR [LDLR_Y845_YF]	1.08	0.939	0.748	0.762	0.871	1.31	0.906	1.94	0.996	1.15	1.55	1.02	1.45	1.06	0.76	4.23
HNVPIYEGFGL [ACTA1_Y168_A172G_YF]	0.519	27.6	13.5	24.2	18.8	7.97	0.507	1.35	14.9	12.1	0.575	8.62	4.3	0.85	0.823	0.513
HTDDGYMPMSP [IRS1_Y612]	0.757	0.756	0.834	0.787	0.824	1.04	1.45	1.94	0.839	0.883	1.37	0.503	1.59	0.771	0.882	2.53
HTVVSYAEVRA [CLOCK_Y378]	0.599	0.809	0.899	0.627	0.52	0.781	0.62	1.12	0.897	0.509	0.779	0.742	1.23	0.721	27.9	3.25
HVIKLYGACSQ [RET_Y791]	0.84	0.768	0.661	0.875	0.545	1.1	0.627	1.13	0.489	0.423	1.6	0.713	1.58	0.643	0.763	0.537
IDPFTYTPFGS [CYP3A4_Y432_I431T_YF]	0.523	0.705	1.18	0.431	0.587	0.581	0.486	0.724	0.91	0.561	0.755	2.88	0.851	0.746	0.863	0.597
IDPYTYTPFGS [CYP3A4_Y432_I431T]	2.25	0.6	3.36	0.563	0.698	0.63	3.24	1.3	7.04	1.16	0.907	6.82	0.914	0.92	0.885	1.17
IEELTYIIKQD [STX5_Y137]	0.665	0.578	0.528	0.55	0.411	0.801	0.551	1.33	0.461	0.469	1.25	0.554	1.52	0.712	0.779	0.404
